{"source": "paper PMC12259117", "about": "(bioRxiv, 2025)", "binders": {"B1": {"name": "BsParB(A232G), full length (natural protein)", "chain": "MAKGLGKGINALFNQVDLSEETVEEIKIADLRPNPYQPRKHFDDEALAELKESVLQHGILQPLIVRKSLKGYDIVAGERRFRAAKLAGLDTVPAIVRELSEALMREIALLENLQREDLSPLEEAQAYDSLLKHLDLTQEQLAKRLGKSRPHIANHLRLLTLPENIQQLIAEGTLSMGHGRTLLGLKNKNKLEPLVQKVIAEQLNVRQLEQLIQQLNQNVPRETKKKEPVKDGVLKERESYLQNYFGTTVNIKRQKKKGKIEIEFFSNEDLDRILELLSERES"}, "B2": {"name": "BsParB(K255A), full length (natural protein)", "chain": "B1 chain with G232A, K255A"}, "B3": {"name": "BsParB(K256A), full length (natural protein)", "chain": "B1 chain with G232A, K256A"}, "B4": {"name": "BsParB(K252A-K255A-K259A) (natural protein)", "chain": "B1 chain with G232A, K252A, K255A, K259A"}, "B5": {"name": "BsParB(K257A), full length (natural protein)", "chain": "B1 chain with G232A, K257A"}, "B6": {"name": "BsParB(K252A-K259A) (natural protein)", "chain": "B1 chain with G232A, K252A, K259A"}, "B7": {"name": "BsParB(K252A), full length (natural protein)", "chain": "B1 chain with G232A, K252A"}, "B8": {"name": "BsParB(K259A), full length (natural protein)", "chain": "B1 chain with G232A, K259A"}, "B9": {"name": "10-bp hairpin DNA (structured_DNA)", "DNA": "GCGTACATCATTCCCTGATGTACGC"}}, "note": "Substitutions are numbered along the chain they refer to. Numbers in names are those of the source.", "data": [{"biological_target": "the molecule itself", "assay": "SEC-MALS", "values": [{"binder": "B1", "stoichiometry N": 2}, {"binder": "B2", "stoichiometry N": 2}, {"binder": "B3", "stoichiometry N": 2}, {"binder": "B4", "binding result": "binds"}, {"binder": "B5", "stoichiometry N": 2}, {"binder": "B6", "binding result": "binds"}, {"binder": "B7", "stoichiometry N": 2}, {"binder": "B8", "stoichiometry N": 2}]}, {"biological_target": "T1, ParB CTD (Bacillus subtilis, UniProt P26497 217-282)", "T1 sequence": "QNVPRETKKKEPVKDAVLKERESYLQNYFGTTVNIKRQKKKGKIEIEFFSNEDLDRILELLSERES", "assay": "NMR", "values": [{"binder": "B9", "binding result": "binds"}]}]}
